B1: Kv1.1 (other)
chain: MTVMSGENADEASTAPGHPQDGSYPRQADHDDHECCERVVINISGLRFETQLKTLAQFPNTLLGNPKKRMRYFDPLRNEYFFDRNRPSFDAILYYYQSGGRLRRPVNVPLDMFSEEIKFYELGEEAMEKFREDEGFIKEEERPLPEKEYQRQVWLLFEYPESSGPARVIAIVSVMVILISIVIFCLETLPELKDDKDFTGTIHRIDNTTVIYTSNIFTDPFFIVETLCIIWFSFELVVRFFACPSKTDFFKNIMNFIDIVAIIPYFITLGTEIAEQEGNQKGEQATSLAILRVIRLVRVFRIFKLSRHSKGLQILGQTLKASMRELGLLIFFLFIGVILFSSAVYFAEAEEAESHFSSIPDAFWWAVVSMTTVGYGDMYPVTIGGKIVGSLCAIAGVLTIALPVPVIVSNFNYFYHRETEGEEQAQLLHVSSPNLASDSDLSRRSSSTISKSEYMEIEEDMNNSIAHYRQANIRTGNCTTADQNCVNKSKLLTDV
B2: Kv1.3 (other)
chain: MTVVPGDHLLEPEAAGGGGGDPPQGGCGSGGGGGGCDRYEPLPPALPAAGEQDCCGERVVINISGLRFETQLKTLCQFPETLLGDPKRRMRYFDPLRNEYFFDRNRPSFDAILYYYQSGGRIRRPVNVPIDIFSEEIRFYQLGEEAMEKFREDEGFLREEERPLPRRDFQRQVWLLFEYPESSGPARGIAIVSVLVILISIVIFCLETLPEFRDEKDYPASPSQDVFEAANNSTSGAPSGASSFSDPFFVVETLCIIWFSFELLVRFFACPSKATFSRNIMNLIDIVAIIPYFITLGTELAERQGNGQQAMSLAILRVIRLVRVFRIFKLSRHSKGLQILGQTLKASMRELGLLIFFLFIGVILFSSAVYFAEADDPSSGFNSIPDAFWWAVVTMTTVGYGDMHPVTIGGKIVGSLCAIAGVLTIALPVPVIVSNFNYFYHRETEGEEQAQYMHVGSCQHLSSSAEELRKARSNSTLSKSEYMVIEEGGMNHSAFPQTPFKTGNSTATCTTNNNPNSCVNIKKIFTDV

Binder	Kd (ShK(L1))	Kd (ShK(L3))	Kd (ShK(D2))	Kd (ShK(D3))
B1	1 nM	1.1 nM	1.1 nM	–
B2	–	–	–	0.07 nM

Source: US8080523 (dated 2011)
